The source of these data is article PMC6136348, “In the quest for new targets for pathogen eradication: the adenylosuccinate synthetase from the bacterium Helicobacter pylori” (Journal of Enzyme Inhibition and Medicinal Chemistry, 2018).

For orientation: stoichiometry N means the number of molecules, sites or subunits per partner or assembly.

The series deals with the molecule itself. As to the kind of experiment: SEC; Sephacryl S-200 HR column calibrated with marker proteins; 50 mM phosphate buffer pH 6.5, 150 mM NaCl, 2 mM EDTA, 1 mM DTT, +4 °C; sample loaded at ~15 mg/mL total protein (second step of the purification).

B1: Helicobacter pylori adenylosuccinate synthetase (AdSS) (enzyme, Helicobacter pylori (strain ATCC 26695), UniProt P56137 1-411, looked up)
chain: MADVVVGIQWGDEGKGKIVDRIAKDYDFVVRYQGGHNAGHTIVHKGVKHSLHLMPSGVLYPKCKNIISSAVVVSVKDLCEEISAFEDLENRLFVSDRAHVILPYHAKKDAFKEKSQNIGTTKKGIGPCYEDKMARSGIRMGDLLDDKILEEKLNAHFKAIEPFKKAYDLGENYEKDLMGYFKTYAPKICPFIKDTTSMLIEANQKGEKILLEGAQGTLLDIDLGTYPFVTSSNTTSASACVSTGLNPKAINEVIGITKAYSTRVGNGPFPSEDTTPMGDHLRTKGAEFGTTTKRPRRCGWLDLVALKYACALNGCTQLALMKLDVLDGIDAIKVCVAYERKGERLEIFPSDLKDCVPIYQTFKGWEKSVGVRKLDDLEPNVREYIRFIEKEVGVKIRLISTSPEREDTIFL
notes: Adenylosuccinate synthetase (AdSS, EC 6.3.4.4), product of the purA gene of Helicobacter pylori strain ATCC 26695; amplified from genomic DNA with primers for the 5' and the 3' end of the gene; theoretical monomer mass 45,742.72 Da; Cloned between NdeI and XhoI of pET21b; The printed reverse primer appears to carry a stop codon before the XhoI site, so the vector's C-terminal His tag is probably …
For the protein B1, the “stoichiometry N” value came to 2.
